According to PMC11584650, “An inhibitory segment within G-patch activators tunes Prp43-ATPase activity during ribosome assembly” (Nature Communications, 2024):

What was measured:
[1] = biological target: His6-Prp43 (S. cerevisiae) (UniProt P53131)
[2] = biological target: His6-Prp43 (S. cerevisiae) (UniProt P53131); remark: listed apart in the source

Chain of His6-Prp43 (S. cerevisiae) (P53131 whole entry): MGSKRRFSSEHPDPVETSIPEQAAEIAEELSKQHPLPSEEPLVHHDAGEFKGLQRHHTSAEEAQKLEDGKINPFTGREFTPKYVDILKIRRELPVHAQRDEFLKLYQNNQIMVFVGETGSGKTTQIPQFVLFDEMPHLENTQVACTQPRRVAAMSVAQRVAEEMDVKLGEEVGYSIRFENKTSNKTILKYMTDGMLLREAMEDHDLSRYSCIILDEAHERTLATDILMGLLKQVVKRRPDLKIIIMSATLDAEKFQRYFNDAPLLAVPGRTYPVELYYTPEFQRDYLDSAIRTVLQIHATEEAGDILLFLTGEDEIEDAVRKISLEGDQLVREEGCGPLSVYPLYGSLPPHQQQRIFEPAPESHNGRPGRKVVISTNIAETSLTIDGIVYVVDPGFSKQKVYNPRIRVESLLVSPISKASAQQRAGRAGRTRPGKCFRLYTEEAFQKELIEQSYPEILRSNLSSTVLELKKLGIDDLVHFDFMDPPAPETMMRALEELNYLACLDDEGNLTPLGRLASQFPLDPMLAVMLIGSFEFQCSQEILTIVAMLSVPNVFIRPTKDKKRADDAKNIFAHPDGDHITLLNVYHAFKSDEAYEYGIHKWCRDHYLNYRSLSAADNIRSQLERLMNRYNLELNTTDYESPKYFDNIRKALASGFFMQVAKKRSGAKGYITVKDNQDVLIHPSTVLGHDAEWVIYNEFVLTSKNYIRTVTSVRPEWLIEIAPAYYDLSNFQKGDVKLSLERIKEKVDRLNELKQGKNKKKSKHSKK

GST-Pxr1^G (domain or fragment)
ATPase activity of the Prp43-P^G fusion against Prp43 with an equimolar amount of Pxr1^G [1]: 2 fold

GST-Tma23^G (domain or fragment)
stimulation of Prp43 ATPase activity by Tma23^G added at a 1:1 or 10:1 molar ratio (NADH-coupled assay, 2.5 mM ATP) [2]: 3 fold
ATPase activity of the Prp43-T^G fusion against Prp43 with an equimolar amount of Tma23^G [1]: 30 fold
